PMC3026807

Target: Arg224 (UniProt position 224, YHALYRYFVEL)
Assay: electrophysiology

| Substance | pKa (Bath (mM): 67.5 Na2SO4, 4 KCl, 1 K gluconate, 2 CaCl2, 1 MgCl2, 105 sucrose (standard solution). The article does not state explicitly which bath was used for Figure 5. Pipette: 140 mM KCl., 10 mM Hepes/Tris, MES for pH 5.0-6.5, AMPSO for pH 8.5-9.0, CAPS for pH 9.5-11.0, concatenated WT-WT channel, pHo gating) | pKa (pHo-gated channel, closed to open on alkalinization, non-concatenated WT, cited from earlier work) |
| --- | --- | --- |
| TASK-2 WT-WT concatenated tandem dimer (Mus musculus; deletion of the C-terminal 148 residues (after V354) in the first protomer; insertion of L355-D356 linker; no substitution at R224 in either protomer) | 8.2±0.15 |  |
| TASK-2 (K2P5.1, KCNK5) two-pore-domain potassium channel (Mus musculus) |  | 8.0 |
